Reference: patent US20070293425A1 (JULIUS MAXIMILIANS UNIVERSITAT WURZBURG, published 2007)

T1: Noggin/Fc
T1 construct: Bought (R&D systems); construct not described; also called Noggin-Fc fusion protein
T1 sequence (Q13253 whole entry, species assumed, looked up): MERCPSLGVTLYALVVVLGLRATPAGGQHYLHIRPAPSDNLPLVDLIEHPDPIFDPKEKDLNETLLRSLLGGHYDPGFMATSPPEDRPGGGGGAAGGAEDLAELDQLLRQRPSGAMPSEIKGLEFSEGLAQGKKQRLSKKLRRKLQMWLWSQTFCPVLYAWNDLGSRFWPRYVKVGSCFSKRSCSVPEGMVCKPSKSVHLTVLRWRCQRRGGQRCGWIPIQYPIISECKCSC


Key:
[1] = molecular target: T2, Activin receptor II ectodomain; experiment: BIAcore, immobilised ARII ectodomain, BMP-2 as analyte
T2 construct: extracellular domain; Biotinylated, immobilised on a streptavidin chip; also called ARII; type II receptor ARII
T2 sequence (P27037 20-135): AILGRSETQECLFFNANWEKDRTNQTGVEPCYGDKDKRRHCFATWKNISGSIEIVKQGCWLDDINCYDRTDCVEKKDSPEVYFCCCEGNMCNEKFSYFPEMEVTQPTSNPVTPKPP
Protocol: (§1) Proteins were biotinylated and immobilised to streptavidin-coated sensor chip CM5 (Kirsch et al., 2000a). The extracellular domain of BRIA, BRIB and ARII were prepared as described (Kirsch et al., 2000a). […] Interaction with analyte was measured on a BIAcore 2000 system (Kirsch et al., 2000a). Evaluation of sensorgrams (Biaevaluation software 2.0) yielded kinetic constants for complex formation (kₒₙ) and dissociation (koff). […] Apparent dissociation constants KD were either calculated as KD=koff/kₒₙ or by evaluating dose dependency of equilibrium binding.

[2] = molecular target: BRIA receptor on C2C12 and ATDC5 cells; experiment: cell-based or functional assay
[3] = molecular target: T3, Gremlin; experiment: BIAcore, immobilised Gremlin, BMP-2 as analyte
T3 construct: Bought (R&D systems)
T3 sequence (O70326 25-184): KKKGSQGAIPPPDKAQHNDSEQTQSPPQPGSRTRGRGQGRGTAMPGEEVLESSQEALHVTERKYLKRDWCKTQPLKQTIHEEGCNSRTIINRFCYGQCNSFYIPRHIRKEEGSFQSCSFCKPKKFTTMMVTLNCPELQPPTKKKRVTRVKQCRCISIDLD
Protocol: as §1

[4] = molecular target: T4, BRIBEC, extracellular domain of BMPR-IB; experiment: BIAcore, immobilised BRIB ectodomain, BMP-2 as analyte
T4 construct: extracellular domain; Biotinylated, immobilised on a streptavidin chip; also called BRIB receptor
T4 sequence (P36898 14-126): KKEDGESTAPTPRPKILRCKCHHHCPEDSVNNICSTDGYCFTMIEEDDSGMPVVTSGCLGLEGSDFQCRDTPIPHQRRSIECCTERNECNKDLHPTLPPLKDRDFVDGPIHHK
Protocol: as §1

[5] = molecular target: T5, Chordin CR3; experiment: BIAcore, immobilised Chordin CR3, BMP-2 as analyte
T5 construct: domain: CR3; also called Chordin domain CR3
Protocol: as §1

[6] = molecular target: T6, Chordin CR1; experiment: BIAcore, immobilised Chordin CR1, BMP-2 as analyte
T6 construct: domain: CR1; also called Chordin domain CR1
Protocol: as §1

[7] = molecular target: T1, Noggin/Fc; experiment: BIAcore, immobilised Noggin
Protocol: as §1

[8] = molecular target: T3, Gremlin; experiment: BIAcore, immobilised Gremlin, mutein as analyte, against BMP-2 wild type
Protocol: as §1

[9] = molecular target: T4, BRIBEC, extracellular domain of BMPR-IB; experiment: BIAcore, immobilised BRIB ectodomain, mutein as analyte, against BMP-2 wild type
Protocol: as §1

[10] = molecular target: T1, Noggin/Fc; experiment: BIAcore, immobilised Noggin, mutein as analyte, against BMP-2 wild type
Protocol: as §1

[11] = molecular target: T6, Chordin CR1; experiment: BIAcore, immobilised Chordin CR1, mutein as analyte, against BMP-2 wild type
Protocol: as §1

[12] = molecular target: T2, Activin receptor II ectodomain; experiment: BIAcore, immobilised ARII ectodomain, mutein as analyte, against BMP-2 wild type
Protocol: as §1

[13] = molecular target: T5, Chordin CR3; experiment: BIAcore, immobilised Chordin CR3, mutein as analyte, against BMP-2 wild type
Protocol: as §1

Row | Binder | ED50 of induction of alkaline phosphatase (ALP) activity in ATDC5 cells [2] | ED50 of induction of alkaline phosphatase (ALP) activity in C2C12 cells [2] | KD(Mut)/KD(WT) [9] | KD(Mut)/KD(WT) [12] | further results
1 | BMP-2 wild type (ligand, also called hBMP-2; human BMP-2) QAKHKQRKRLKSSCKRHPLYVDFSDVGWNDWIVAPPGYHAFYCHGECPFPLADHLNSTNHAIVQTLVNSVNSKIPKACCVPTELSAISMLYLDENEKVVLKNYQDMVVEGCGCR | 8 nM | 25 nM |  |  | Kd [1]: 14 nM; Kd [3]: 22 nM; Kd [4]: 3.6 nM; Kd [5]: 67 nM; Kd [6]: 61 nM
2 | BMP-2 D53P (ligand, also called BMP-2 proline mutein D53P) QAKHKQRKRLKSSCKRHPLYVDFSDVGWNDWIVAPPGYHAFYCHGECPFPLAPHLNSTNHAIVQTLVNSVNSKIPKACCVPTELSAISMLYLDENEKVVLKNYQDMVVEGCGCR | 140 nM | 330 nM | 10 ratio | 1.2 ratio | Kd [7]: 2.5 nM; KD(mut)/KD(WT) [8]: 0.7 ratio; KD(mut)/KD(WT) [10]: 1.3 ratio; KD(mut)/KD(WT) [11]: 0.7 ratio; KD(mut)/KD(WT) [13]: 1.1 ratio
3 | BMP-2 D53A (ligand) QAKHKQRKRLKSSCKRHPLYVDFSDVGWNDWIVAPPGYHAFYCHGECPFPLAAHLNSTNHAIVQTLVNSVNSKIPKACCVPTELSAISMLYLDENEKVVLKNYQDMVVEGCGCR |  |  | 0.34 ratio | 1.2 ratio | 
4 | BMP-2 S69R (ligand, also called S69R mutein) QAKHKQRKRLKSSCKRHPLYVDFSDVGWNDWIVAPPGYHAFYCHGECPFPLADHLNSTNHAIVQTLVNRVNSKIPKACCVPTELSAISMLYLDENEKVVLKNYQDMVVEGCGCR |  |  |  | 0.9 ratio | 
5 | BMP-2 Y103A (ligand) QAKHKQRKRLKSSCKRHPLYVDFSDVGWNDWIVAPPGYHAFYCHGECPFPLADHLNSTNHAIVQTLVNSVNSKIPKACCVPTELSAISMLYLDENEKVVLKNAQDMVVEGCGCR |  |  | 3.2 ratio | 1.4 ratio | 
6 | BMP-2 L51P (ligand, also called L51P mutein; BMP-2 proline mutein L51P) QAKHKQRKRLKSSCKRHPLYVDFSDVGWNDWIVAPPGYHAFYCHGECPFPPADHLNSTNHAIVQTLVNSVNSKIPKACCVPTELSAISMLYLDENEKVVLKNYQDMVVEGCGCR | > 1500 nM | > 1600 nM |  | 2.3 ratio | Kd [7]: 0.5 nM; KD(mut)/KD(WT) [8]: 0.55 ratio; KD(mut)/KD(WT) [10]: 0.27 ratio; KD(mut)/KD(WT) [11]: 0.85 ratio; KD(mut)/KD(WT) [13]: 0.9 ratio
7 | BMP-2 W28F (ligand, also called W28F mutein) QAKHKQRKRLKSSCKRHPLYVDFSDVGFNDWIVAPPGYHAFYCHGECPFPLADHLNSTNHAIVQTLVNSVNSKIPKACCVPTELSAISMLYLDENEKVVLKNYQDMVVEGCGCR |  |  | 1.7 ratio | 1.2 ratio | 
